# B1: CD3 × CD33-BspAb82 (bispecific antibody)
# chain 1: EVQLVESGGGLVKPGGSLRLSCAASGLTFSTYSMNWVRQAPGKCLEWVSSISSSGSYVYYADSVKGRFTMSRDNAKNSLYLQMNSLRAEDTAVYYCARERRELLFDYWGQGTLVTVSSGGGGSGGGGSGGGGSGGGGSNFMLTQPHSVSESPGKTVTISCTRSSGSIASNYVQWYQQRPGSSPTSVIYEDNQRPSGVPDRFSGSIDSSSNSASLTISGLKTEDEADYYCQSYDRSNRVFGCGTKLTVLDKTHTCPPCPAPEFEGGPSVFLFPPKPKDTLMISRTPEVTCVVVDVSHEDPEVKFNWYVDGVEVHNAKTKPREEQYNSTYRVVSVLTVLHQDWLNGKEYKCKVSNKALPASIEKTISKAKGQPREPQVYTLPPCREEMTKNQVSLWCLVKGFYPSDIAVEWESNGQPENNYKTTPPVLDSDGSFFLYSKLTVDKSRWQQGNVFSCSVMHEALHNHYTQKSLSLSPGK
# chain 2: EVQLVQSGAEVKKPGSSVKVSCKASGYTITDSNIHWVRQAPGQSLEWIGYIYPYNGGTDYNQKFKNRATLTVDNPTNTAYMELSSLRSEDTAFYYCVNGNPWLAYWGQGTLVTVSSASTKGPSVFPLAPSSKSTSGGTAALGCLVKDYFPEPVTVSWNSGALTSGVHTFPAVLQSSGLYSLSSVVTVPSSSLGTQTYICNVNHKPSNTKVDKRVEPKSCDKTHTCPPCPAPEFEGGPSVFLFPPKPKDTLMISRTPEVTCVVVDVSHEDPEVKFNWYVDGVEVHNAKTKPREEQYNSTYRVVSVLTVLHQDWLNGKEYKCKVSNKALPASIEKTISKAKGQPREPQVCTLPPSREEMTKNQVSLSCAVKGFYPSDIAVEWESNGQPENNYKTTPPVLDSDGSFFLVSKLTVDKSRWQQGNVFSCSVMHEALHNRFTQKSLSLSPGK
# chain 3: DIQLTQSPSTLSASVGDRVTITCRASESLDNYGIRFLTWFQQKPGKAPKLLMYAASNQGSGVPSRFSGSGSGTEFTLTISSLQPDDFATYYCQQTKEVPWSFGQGTKVEVKRTVAAPSVFIFPPSDEQLKSGTASVVCLLNNFYPREAKVQWKVDNALQSGNSQESVTEQDSKDSTYSLSSTLTLSKADYEKHKVYACEVTHQGLSSPVTKSFNRGEC
# B2: CD3 × CD33-BspAb85 (bispecific antibody)
# scFv-Fc: EVQLVESGGGLVKPGGSLRLSCAASGFTFSSYSMNWVRQAPGKCLEWVSSISRSSGYIFYADSVKGRFTISRDNAKNSLYLQMNSLRAEDTAVYYCVRERVGAGFDYWGQGTLVTVSSGGGGSGGGGSGGGGSGGGGSNFMLTQPHSVSESPGKTVAISCTRSSGSIASNYVQWYQQRPGSSPTAVIYEDNQRPSGVPDRFSGSIDSSSNSAFLTISGLKTEDEADYYCQSYDSSNRVFGCGTKLTVLGGGGSDKTHTCPPCPAPEFEGGPSVFLFPPKPKDTLMISRTPEVTCVVVDVSHEDPEVKFNWYVDGVEVHNAKTKPREEQYNSTYRVVSVLTVLHQDWLNGKEYKCKVSNKALPASIEKTISKAKGQPREPQVYTLPPCREEMTKNQVSLWCLVKGFYPSDIAVEWESNGQPENNYKTTPPVLDSDGSFFLYSKLTVDKSRWQQGNVFSCSVMHEALHNHYTQKSLSLSPGK
# heavy: B1 chain 2
# light: B1 chain 3
# notes: KiH heterodimer
# B3: CD3 × CD33-BspAb83 (bispecific antibody)
# chain 1: EVQLVESGGGLVKPGGSLRLSCVASGFTFSRYSMNWVRQAPGKCLEWVSSISSSSRYTYYADSLKGRFIMSRDNAKNSLFLQMNSLRAEDTAVYYCARNLYNALDYWGQGTLVTVSSGGGGSGGGGSGGGGSGGGGSFMLTQPHSVSESPGKTVTISCTRSSGSIASNYVQWYQQRPGSSPTTVIYEDNQRPSGVPDRFSGSIDSSSNSASLTISGLQTEDEADYYCQSYDSSNRVFGCGTKLTVLDKTHTCPPCPAPEFEGGPSVFLFPPKPKDTLMISRTPEVTCVVVDVSHEDPEVKFNWYVDGVEVHNAKTKPREEQYNSTYRVVSVLTVLHQDWLNGKEYKCKVSNKALPASIEKTISKAKGQPREPQVYTLPPCREEMTKNQVSLWCLVKGFYPSDIAVEWESNGQPENNYKTTPPVLDSDGSFFLYSKLTVDKSRWQQGNVFSCSVMHEALHNHYTQKSLSLSPGK
# chain 2: B1 chain 2
# chain 3: B1 chain 3
# B4: CD3 × CD33-BspAb86 (bispecific antibody)
# scFv-Fc: EVQLVESGGGLVKPGGSLRLSCAASGFTFSSYSMNWVRQAPGKCLEWVSSISRSGTYIYYADSVKGRFTISRDNAKNSLYLQMNSLRAEDTAVYYCARERWELLYFDYWGQGTLVTVSSGGGGSGGGGSGGGGSGGGGSQTVVTQEPSLTVSPGGTVTLTCASSTGAVTSGYYPNWFQQKPGQAPRALIYSTSNKHSWTPARFSGSLLGGKAALTLSGVQPEDEAEYYCLLYYGGAYVFGCGTKVTVLGGGGSDKTHTCPPCPAPEFEGGPSVFLFPPKPKDTLMISRTPEVTCVVVDVSHEDPEVKFNWYVDGVEVHNAKTKPREEQYNSTYRVVSVLTVLHQDWLNGKEYKCKVSNKALPASIEKTISKAKGQPREPQVYTLPPCREEMTKNQVSLWCLVKGFYPSDIAVEWESNGQPENNYKTTPPVLDSDGSFFLYSKLTVDKSRWQQGNVFSCSVMHEALHNHYTQKSLSLSPGK
# heavy: B1 chain 2
# light: B1 chain 3
# notes: KiH heterodimer
# B5: CD3 × CD33-BspAb89 (bispecific antibody)
# scFv-Fc: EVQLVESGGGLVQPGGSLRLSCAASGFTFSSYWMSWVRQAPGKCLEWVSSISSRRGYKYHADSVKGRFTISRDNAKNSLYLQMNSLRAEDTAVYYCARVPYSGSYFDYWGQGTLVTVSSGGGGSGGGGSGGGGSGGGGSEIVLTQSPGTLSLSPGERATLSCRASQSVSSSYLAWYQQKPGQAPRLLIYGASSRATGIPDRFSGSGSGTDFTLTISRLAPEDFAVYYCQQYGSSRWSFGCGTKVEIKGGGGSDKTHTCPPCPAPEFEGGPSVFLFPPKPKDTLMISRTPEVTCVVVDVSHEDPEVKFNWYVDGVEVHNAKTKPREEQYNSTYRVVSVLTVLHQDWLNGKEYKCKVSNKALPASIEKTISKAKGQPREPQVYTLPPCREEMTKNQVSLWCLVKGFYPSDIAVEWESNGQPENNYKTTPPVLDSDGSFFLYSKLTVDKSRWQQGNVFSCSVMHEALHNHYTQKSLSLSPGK
# heavy: B1 chain 2
# light: B1 chain 3
# notes: KiH heterodimer
# B6: CD3 × CD33-BspAb84 (bispecific antibody)
# scFv-Fc: EVQVAESGGGLVKPGGSLRLSCAASGFTFSRYSMNWVRQAPGKCLEWVSSISSSGSYTYYADSVKGRFTISRDNAKNSLYLQMNSLRAEDTAVYYCVRERGKGAGMDVWGQGTTVTVSSGGGGSGGGGSGGGGSGGGGSNFMLTQPHSVSESPGKTVTISCTRSSGSIASNYVQWYQQRPGSSPTTVIYEDNQRPSGVPDRFSGSIDSSSNSASLTISGLKTEDEADYYCQSYDSSNRVFGCGTKLTVLGGGGSDKTHTCPPCPAPEFEGGPSVFLFPPKPKDTLMISRTPEVTCVVVDVSHEDPEVKFNWYVDGVEVHNAKTKPREEQYNSTYRVVSVLTVLHQDWLNGKEYKCKVSNKALPASIEKTISKAKGQPREPQVYTLPPCREEMTKNQVSLWCLVKGFYPSDIAVEWESNGQPENNYKTTPPVLDSDGSFFLYSKLTVDKSRWQQGNVFSCSVMHEALHNHYTQKSLSLSPGK
# heavy: B1 chain 2
# light: B1 chain 3
# notes: KiH heterodimer
# B7: CD3 × CD33-BspAb90 (bispecific antibody)
# scFv-Fc: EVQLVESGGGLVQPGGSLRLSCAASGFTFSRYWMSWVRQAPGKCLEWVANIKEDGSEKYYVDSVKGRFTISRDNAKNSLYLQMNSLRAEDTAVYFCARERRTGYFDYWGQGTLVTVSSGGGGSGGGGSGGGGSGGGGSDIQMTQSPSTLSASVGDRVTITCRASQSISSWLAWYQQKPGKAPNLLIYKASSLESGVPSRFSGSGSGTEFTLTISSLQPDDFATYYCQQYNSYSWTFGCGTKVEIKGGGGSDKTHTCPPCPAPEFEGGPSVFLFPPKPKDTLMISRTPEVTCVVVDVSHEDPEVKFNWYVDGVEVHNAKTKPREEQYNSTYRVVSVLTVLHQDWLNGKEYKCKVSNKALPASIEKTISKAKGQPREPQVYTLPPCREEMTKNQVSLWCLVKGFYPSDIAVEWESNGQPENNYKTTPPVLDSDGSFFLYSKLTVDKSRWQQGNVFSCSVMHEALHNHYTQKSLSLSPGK
# heavy: B1 chain 2
# light: B1 chain 3
# notes: KiH heterodimer
# Biological target: T1, human CD3 (TCR/CD3 complex on the cell surface) (human, UniProt P07766 23-207; P04234 22-171; P09693 23-182)
# T1 construct: whole, on cells; Native CD3 on human Pan-T cells or Jurkat wild-type cells; also called CD3 on Pan-T cells; CD3 on Jurkat WT cells
# T1 sequence (P07766 23-207, chain 1 of 3): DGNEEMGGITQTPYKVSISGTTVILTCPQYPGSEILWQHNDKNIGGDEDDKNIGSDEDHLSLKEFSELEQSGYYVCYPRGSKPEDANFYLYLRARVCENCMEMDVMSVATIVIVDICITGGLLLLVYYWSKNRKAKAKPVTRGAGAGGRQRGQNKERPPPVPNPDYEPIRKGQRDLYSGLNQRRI
# T1 sequence (P04234 22-171, chain 2 of 3): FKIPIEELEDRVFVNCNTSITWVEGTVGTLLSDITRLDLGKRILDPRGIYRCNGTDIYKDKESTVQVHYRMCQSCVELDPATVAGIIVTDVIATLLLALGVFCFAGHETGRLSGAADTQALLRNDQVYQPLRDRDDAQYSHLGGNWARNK
# T1 sequence (P09693 23-182, chain 3 of 3): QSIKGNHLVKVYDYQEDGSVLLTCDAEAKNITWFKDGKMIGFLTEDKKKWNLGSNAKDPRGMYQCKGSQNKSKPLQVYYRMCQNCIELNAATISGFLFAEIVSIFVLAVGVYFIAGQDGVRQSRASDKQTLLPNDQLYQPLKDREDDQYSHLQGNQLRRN
# Assay: flow cytometry, Jurkat WT gMFI over Jurkat KO gMFI, 1 ug/mL
row,Jurkat WT/KO (Fold),Binder
1,12.9 fold,B1
2,6.2 fold,B2
3,14 fold,B3
4,1.4 fold,B4
5,0.8 fold,B5
6,10.8 fold,B6
7,1.9 fold,B7

# Biological target: T1, human CD3 (TCR/CD3 complex on the cell …)
# Assay: flow cytometry, Pan-T cells, 1 ug/mL
% Positive,gMFI,Binder
99.5%,319000 gMFI,B1
99.4%,96000 gMFI,B2
99.8%,566000 gMFI,B3
35.2%,5410 gMFI,B4
0.6%,1830 gMFI,B5
99.9%,173000 gMFI,B6
83.8%,11600 gMFI,B7

# Biological target: T1, human CD3 (TCR/CD3 complex on the cell …)
# Assay: flow cytometry, Pan-T cells, 10 ug/mL
% Positive,gMFI,Binder
99.9%,462000 gMFI,B1
99.7%,249000 gMFI,B2
99.8%,598000 gMFI,B3
92.4%,25400 gMFI,B4
1.7%,1960 gMFI,B5
99.9%,362000 gMFI,B6
98.1%,78400 gMFI,B7

# Biological target: T1, human CD3 (TCR/CD3 complex on the cell …)
# Assay: flow cytometry, Jurkat WT cells, 1 ug/mL
row,gMFI,Binder
1,54500 gMFI,B1
2,18900 gMFI,B2
3,67700 gMFI,B3
4,3180 gMFI,B4
5,1840 gMFI,B5
6,35200 gMFI,B6
7,4480 gMFI,B7

# Biological target: T1, human CD3 (TCR/CD3 complex on the cell …)
# Assay: flow cytometry, Jurkat WT gMFI over Jurkat KO gMFI, 10 ug/mL
row,Jurkat WT/KO (Fold),Binder
1,14.4 fold,B1
2,9.9 fold,B2
3,14.3 fold,B3
4,3.9 fold,B4
5,0.9 fold,B5
6,13.9 fold,B6
7,7.5 fold,B7

# Biological target: T1, human CD3 (TCR/CD3 complex on the cell …)
# Assay: flow cytometry, Jurkat WT cells, 10 ug/mL
row,gMFI,Binder
1,58600 gMFI,B1
2,32000 gMFI,B2
3,69100 gMFI,B3
4,9550 gMFI,B4
5,1750 gMFI,B5
6,51000 gMFI,B6
7,19400 gMFI,B7
